{"source": "paper PMC9331257", "origin": "cited, not measured here", "key": {"PAC1R (Homo sapiens) [1]": {"biological_target": "PAC1R (Homo sapiens) (UniProt P41586)", "sequence (P41586 21-468)": "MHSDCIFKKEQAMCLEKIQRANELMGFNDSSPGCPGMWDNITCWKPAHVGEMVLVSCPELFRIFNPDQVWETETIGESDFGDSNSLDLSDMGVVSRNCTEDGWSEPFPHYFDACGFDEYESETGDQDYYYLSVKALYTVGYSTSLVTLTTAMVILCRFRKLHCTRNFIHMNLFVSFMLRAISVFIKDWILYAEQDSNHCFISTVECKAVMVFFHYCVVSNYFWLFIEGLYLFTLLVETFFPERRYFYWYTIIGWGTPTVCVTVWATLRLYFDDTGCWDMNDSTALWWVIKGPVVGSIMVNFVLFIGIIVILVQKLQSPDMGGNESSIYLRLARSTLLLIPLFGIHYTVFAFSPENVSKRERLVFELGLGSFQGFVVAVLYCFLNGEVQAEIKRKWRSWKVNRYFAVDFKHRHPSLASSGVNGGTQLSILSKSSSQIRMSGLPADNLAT", "assay": "radioligand"}, "[2]": {"biological_target": "PACAP type II receptor (Homo sapiens) (UniProt P32241)", "assay": "radioligand"}, "PAC1R (Homo sapiens) [3]": {"biological_target": "PAC1R (Homo sapiens) (UniProt P41586)", "assay": "radioligand binding"}, "[4]": {"biological_target": "PACAP type II receptor (Homo sapiens) (UniProt P32241)", "assay": "radioligand binding"}, "VPAC1R (Homo sapiens)": {"biological_target": "VPAC1R (Homo sapiens) (UniProt P32241)", "assay": "[125I]VIP displacement"}, "PAC1R (Homo sapiens) [5]": {"biological_target": "PAC1R (Homo sapiens) (UniProt P41586)", "assay": "[125I]Ac-His1-PACAP27 displacement"}, "VPAC2R (Homo sapiens)": {"biological_target": "VPAC2R (Homo sapiens) (UniProt P41587)", "sequence (P41587 24-438)": "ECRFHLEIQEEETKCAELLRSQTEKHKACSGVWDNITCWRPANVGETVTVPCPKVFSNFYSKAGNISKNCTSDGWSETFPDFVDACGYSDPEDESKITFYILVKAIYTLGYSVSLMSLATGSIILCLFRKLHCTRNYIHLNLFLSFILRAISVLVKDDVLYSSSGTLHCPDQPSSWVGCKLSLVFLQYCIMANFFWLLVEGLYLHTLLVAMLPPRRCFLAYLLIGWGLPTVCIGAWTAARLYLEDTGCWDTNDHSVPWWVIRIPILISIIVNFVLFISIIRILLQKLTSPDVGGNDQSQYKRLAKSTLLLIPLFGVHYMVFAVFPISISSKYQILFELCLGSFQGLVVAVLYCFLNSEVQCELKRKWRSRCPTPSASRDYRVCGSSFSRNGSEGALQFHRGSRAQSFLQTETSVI", "assay": "[125I]Ac-His1-PACAP27 displacement"}}}
{"substance": "VIP (from UniProt P01282)", "values": [{"measurement": "Kd", "setting": "PAC1R (Homo sapiens) [1]", "value": "> 500", "unit": "nM"}, {"measurement": "Kd", "setting": "[2]", "value": 0.5, "unit": "nM"}]}
{"substance": "PACAP (from UniProt P18509)", "values": [{"measurement": "Kd", "setting": "PAC1R (Homo sapiens) [3]", "value": 0.5, "unit": "nM"}, {"measurement": "Kd", "setting": "[4]", "value": 0.5, "unit": "nM"}]}
{"substance": "PACAP(6-38) 6-38 (from UniProt P18509)", "values": [{"measurement": "Ki", "setting": "VPAC1R (Homo sapiens)", "value": 600, "unit": "nM"}, {"measurement": "Ki", "setting": "PAC1R (Homo sapiens) [5]", "value": 30, "unit": "nM"}, {"measurement": "Ki", "setting": "VPAC2R (Homo sapiens)", "value": 40, "unit": "nM"}]}
